Key:
Test in all cases: enzyme inhibition kinetics
thrombin = thrombin (UniProt P00734)
[1] = target: single-chain tissue-type plasminogen activator
plasmin = plasmin (UniProt P00747)

wild type plasminogen activator inhibitor-1 (recombinant, baculovirus system), sequence (P05121 24-402): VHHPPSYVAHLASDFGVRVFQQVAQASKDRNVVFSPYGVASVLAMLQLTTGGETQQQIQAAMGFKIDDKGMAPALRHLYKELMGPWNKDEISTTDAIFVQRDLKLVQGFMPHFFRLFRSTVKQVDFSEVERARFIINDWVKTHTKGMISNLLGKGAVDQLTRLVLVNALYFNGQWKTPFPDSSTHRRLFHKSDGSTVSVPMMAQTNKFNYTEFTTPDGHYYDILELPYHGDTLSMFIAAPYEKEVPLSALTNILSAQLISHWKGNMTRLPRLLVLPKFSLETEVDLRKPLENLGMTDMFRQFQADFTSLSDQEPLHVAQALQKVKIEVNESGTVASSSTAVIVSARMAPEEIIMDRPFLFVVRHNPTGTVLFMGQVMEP

**Q.** How did the second-order rate constant of inhibition (thrombin) turn out when “wild type plasminogen activator inhibitor-1 (recombinant, baculovirus system) (from UniProt P05121 24-402) (natural protein)” was run?
**A.** The second-order rate constant of inhibition was 720 M⁻¹ s⁻¹.

**Q.** And the second-order rate constant of inhibition [1]?
**A.** The second-order rate constant of inhibition was 2.11e+07 M⁻¹ s⁻¹.

**Q.** What about the second-order rate constant of inhibition (plasmin) of the same substance?
**A.** Its second-order rate constant of inhibition is 31000 M⁻¹ s⁻¹.

— PMC179894
